{"source": "patent US20110243928A1", "binders": {"B1": {"name": "monoclonal antibody 6A1 (antibody, IgG1, V domains shown)", "VH": "EIQLQQSVAELVRPGASVRLSCTASGFYIKDTYMHWVIQRPEQGLEWIGTIDPANGNTKYVPKFQGKATITADTSSNTAYLRLSSLTSEDTAIYYCARSIYDDYHYDDYYAMDYWGQGTSVTVSS", "VL": "DVLMTQTPLSLPVSLGDQASISCRSSQNIVHINGNTYLEWYLQKPGQSPKLLIYKISDRFSGVPDRFSGSGSGTDFTLKISRVEAEDLGVYYCFQGSHVPWTFGGGTKLEIK"}}, "key": {"16 mer peptide 40": {"biological_target": "T1, 16 mer peptide 40", "T1 sequence (peptide, N-terminal biotin; C-terminal amide)": "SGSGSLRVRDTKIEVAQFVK", "test": "16 mer peptide ELISA"}, "16 mer peptide 41": {"biological_target": "16 mer peptide 41", "sequence (peptide, as listed by the source limits assumed)": "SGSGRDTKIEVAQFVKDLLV", "test": "16 mer peptide ELISA"}}, "data": [{"binder": "B1", "values": [{"measurement": "absorbance at 490 nm", "setting": "16 mer peptide 40", "result": 0.06, "unit": "A490"}, {"measurement": "absorbance at 490 nm", "setting": "16 mer peptide 41", "result": 0.058, "unit": "A490"}]}]}
